Drawing on paper PMC4583294, this text covers inhibition of HMGB1-mediated DNA bending (ligase-mediated circularization of a 123-bp DNA; 50 nM reduced HMGB1, 1-15 nM H1) and inhibition of HMGB1ΔC-mediated DNA bending (ligase-mediated circularization of a 123-bp DNA; 50 nM reduced HMGB1ΔC, 1-15 nM H1) for 1 substance.

For test [1], the target named is HMGB1 protein, wild-type, reduced (residues 1-214) (rat).
The target of test [2] is HMGB1 lacking the acidic C-tail (HMGB1ΔC, residues 1-185) (rat).
Chain of HMGB1 lacking the acidic C-tail (HMGB1ΔC, residues 1-185) (rat) (P09429 1-185, stated change not applied): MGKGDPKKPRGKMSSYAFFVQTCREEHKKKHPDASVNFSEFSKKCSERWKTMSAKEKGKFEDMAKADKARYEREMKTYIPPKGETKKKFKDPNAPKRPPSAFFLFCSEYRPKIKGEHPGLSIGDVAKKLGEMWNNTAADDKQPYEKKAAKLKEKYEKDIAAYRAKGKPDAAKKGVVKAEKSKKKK

For the substance “Recombinant mouse histone H1° (referred to as histone H1) (from UniProt P10922 1-194) (natural protein)”, the inhibition of HMGB1-mediated DNA bending (ligase-mediated circularization of a 123-bp DNA; 50 nM reduced HMGB1, 1-15 nM H1) in test [1] is 90%. This substance displayed an inhibition of HMGB1ΔC-mediated DNA bending (ligase-mediated circularization of a 123-bp DNA; 50 nM reduced HMGB1ΔC, 1-15 nM H1) in test [2] of 40%.
